One molecule from article PMC11929898 (Scientific Reports, 2025) can be followed below.

The assay addresses SMC3 (mouse (endogenous in mouse ES cells), UniProt Q9CW03 1-1217). In words: co-IP.

SMC3, sequence (Q9CW03 whole entry): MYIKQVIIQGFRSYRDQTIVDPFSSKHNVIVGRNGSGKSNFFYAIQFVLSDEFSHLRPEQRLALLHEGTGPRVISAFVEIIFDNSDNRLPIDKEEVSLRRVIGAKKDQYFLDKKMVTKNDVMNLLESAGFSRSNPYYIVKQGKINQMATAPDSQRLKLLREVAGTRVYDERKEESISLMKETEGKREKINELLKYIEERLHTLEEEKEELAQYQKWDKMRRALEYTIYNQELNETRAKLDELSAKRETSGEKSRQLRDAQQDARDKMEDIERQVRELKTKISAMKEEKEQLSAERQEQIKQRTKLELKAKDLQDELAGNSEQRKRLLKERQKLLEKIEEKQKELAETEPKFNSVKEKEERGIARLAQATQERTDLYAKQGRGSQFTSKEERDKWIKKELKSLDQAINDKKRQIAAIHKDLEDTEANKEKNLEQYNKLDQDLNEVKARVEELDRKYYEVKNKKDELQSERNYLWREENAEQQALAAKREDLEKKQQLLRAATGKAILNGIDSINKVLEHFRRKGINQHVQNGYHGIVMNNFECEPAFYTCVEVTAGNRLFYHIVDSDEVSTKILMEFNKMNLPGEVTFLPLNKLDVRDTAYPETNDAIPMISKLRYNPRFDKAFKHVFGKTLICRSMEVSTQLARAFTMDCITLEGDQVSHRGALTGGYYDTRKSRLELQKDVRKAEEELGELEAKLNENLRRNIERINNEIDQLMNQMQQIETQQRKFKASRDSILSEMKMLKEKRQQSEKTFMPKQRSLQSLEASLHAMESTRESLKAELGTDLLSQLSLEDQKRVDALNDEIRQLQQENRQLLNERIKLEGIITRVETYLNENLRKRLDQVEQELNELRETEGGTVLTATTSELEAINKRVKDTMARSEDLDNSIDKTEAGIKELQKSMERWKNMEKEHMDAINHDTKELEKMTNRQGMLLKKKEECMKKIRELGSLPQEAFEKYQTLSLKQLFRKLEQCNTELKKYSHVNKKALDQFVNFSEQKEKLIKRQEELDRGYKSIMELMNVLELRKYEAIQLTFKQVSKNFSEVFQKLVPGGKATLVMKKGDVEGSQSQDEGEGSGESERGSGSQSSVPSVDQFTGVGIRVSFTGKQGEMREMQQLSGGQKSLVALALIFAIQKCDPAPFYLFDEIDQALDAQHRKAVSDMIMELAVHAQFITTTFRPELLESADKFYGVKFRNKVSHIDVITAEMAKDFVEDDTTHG

B1: REC8 (natural protein)
chain: MFYYPNVLQRHTGCFATIWLAATRGSRLVKREYLNVNVVKTCEEILNYVLVRVQPPVAGLPRPRFSLYLSAQLQIGVIRVYFQQCQYLVEDIQHILEHLHRAQLRIRIDMEEADLPSLLLPNCLAMMETLEDAPEPFFGKMSVDPRLPSPFDIPQIRHLLEAATPEKTRKETLPEATPDPRKPDRTLATVQSPEVITLQEAEPIRMLQIEGEQDLPEISRGDLELLIAEKDDAILLEERQRGRLLRQRRASLPLDESREEPRALEGAGLVSALSPPAPAQVEGIQEALPGQVFPPEVQKMTGWEPGALLTEVTPPQELRLPAPPSTEKRLPSLQRPLPRRHRRRQLLFWDKETQISREKFEEQLQTGAHCWEYPVAQPPKRMLTSPAELFRTPTLSGWLPPELLGLWTHCAQVPQRMLRQRPQLETEETVEEERAADEEERRKTEALSEIEVLREAQEPSGPLMLSSELSLEAAEDEKSRTSLIPPEWWAWSEEGQPEPPALPMLPELPEVPMEMPPRPELSSEAVLRAVALKLQANKELDFSSLVPPLSPRKLASRVFYLLLVLSTQKILLVEQQKPYGPLLIRPGPKFP
Regarding B1, the “fold change of co-IP with siRad21 against siCtrl” value amounted to 1.92 fold.
